Results: patent US20240368568, “MODIFIED PRP43 HELICASE AND USE THEREOF” (QITAN TECHNOLOGY LTD., CHENGDU, published 2024)

Key:
[1] = target: Prp43-GP (T61-A764 fused to G-path domain of Pfa1) (Chaetomium thermophilum); test: EMSA; milder dissociation than wild type; 120 nM protein, 30 nM DNA; conditions: tags: C-terminal G-path domain fusion; GST tag removed; label: FAM
Experimental: (§1) In this example, the binding of the N-terminus (M1-N60)-truncated wild-type Prp43 helicases or the modified protein constructs Prp43-GP and Prp43-GP-2 (F181C/N623C/C508S) to DNA, including the enhancement of nucleic acid binding following disulfide bond formation between mutant sites F181C and N623C in the mutants catalyzed by a TMAD catalyst, was assayed by an electrophoresis mobility shift assay.
(§2) The experimental procedures were as follows: 30 nM FAM fluorophore-labeled single-stranded poly-thymine substrate T44-37-FAM was added to a buffer (10 mM HEPES, 50 mM KCl, pH 7.0), the wild-type Prp43 helicase and the modified helicases […] and Prp43-GP-2 at a final concentration of 120 nM were separately added, and the mixture was incubated at 30° C. for 1.5 h; a TMAD cross-linking agent at a final concentration 1000 times that of the helicase was used for catalyzing the crosslinking of cysteines at mutation sites, and the mixture was incubated at 30° C. for 1.5 h.

[2] = target: Prp43-GP-2 (F181C/N623C/C508S) (Chaetomium thermophilum); test: EMSA; no significant dissociation with or without TMAD; 120 nM protein, 30 nM DNA; conditions: tags: C-terminal G-path domain fusion; GST tag removed; label: FAM
Experimental: as §1, §2

TTTTTTTTTTTTTTTTTTTTTTTTTTTTTTTTTTTTTTTTTTTT (ssDNA, [FAM at T37 (from name)]) [T44-37-FAM poly-thymine substrate]
binding result [1]: binds | binding result [2]: binds
